Reference: the supplement of paper PMC10567573
± gives the standard deviation.

Test: protein stability index of a GFP-peptide fusion (GPS, HEK-293T) (PSI 1-6); higher = more stable
[1] = treatment: DMSO, c terminus: a fixed tail appended
[2] = treatment: MLN4924 1 uM, 8 h, c terminus: a fixed tail appended
[3] = treatment: DMSO, c terminus: native
[4] = treatment: MLN4924 1 uM, 8 h, c terminus: native
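Note: 24-mer peptide tiles fused after GFP, lentivirally expressed, FACS-sorted into six equal bins by GFP/DsRed ratio, decoded by Illumina sequencing, PSI is the read-weighted mean bin number.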

Sequence	protein stability index [1]	protein stability index [2]	protein stability index [3]	protein stability index [4]
VPTCSMCKVFGIHKACEVAPLQSV [TRIM63]	2.64 ± 0.32	2.73 ± 0.14		
VQHQRVHTGEKPYKCLECGKAFSQ [ZNF24]	3.29 ± 0.55	3.66 ± 0.46		
VQVPEAWEELLTMKVEAKSHLQWQ [ZSCAN9]	2.46 ± 0.65	2.54 ± 0.26		
VSARSREGRGGRPGSTRPHRSACS [HAGHL]	4.64 ± 0.2	4.69 ± 0.44		
VSERSFDNVRSLKVESGAWIGYEH [CRYBA1]	2.91 ± 0.47	3.02 ± 0.33		
VSHVGWDPQNGFDVNNLDPDLRSL [WAS]	3.9 ± 0.24	3.98 ± 0.3		
VSIKEAAGSSNLPAPERTMAGLSK [VENTX]	4.28 ± 0.3	4.33 ± 0.19		
VSLKQEGDDQPSETDHLSMEEEDP [TPRG1]	5.61 ± 0.22	5.63 ± 0.2		
VSSSQDGKVIVWDSFTTNKEHAVT [GNB5]	3.51 ± 0.23	3.67 ± 0.38		
VTPEAKNLINQMLTINPAKRITAH [CAMK2B]	2.8 ± 0.14	2.95 ± 0.3		
VTYSLLKRLKERSLDTLLEAVESR [SMAD6]	2.26 ± 0.17	2.33 ± 0.29		
VVHRSDEQQHYFNTPFQLSIAPPE [PPTC7]	3.96 ± 0.28	4 ± 0.24		
VVPDVRSVVTTARMQVLKRQVQSL [SMARCE1]	2.5 ± 0.14	2.85 ± 0.21		
VWYVKKFGRYLEHLEVKFMNPYNA [FBXO39]	2.66 ± 0.53	2.02 ± 0.45		
VYCGAGVQKEHEEYMKNLLKVGGI [PCMTD2]	2.75 ± 0.22	2.9 ± 0.28		
WDLRFRIIHETAVGMNFLHCMAPP [RIPK4]	2.89 ± 0.73	2.82 ± 0.83		
WFLNALHSALGGTKKKKKTIVTDV [USP39]	2.6 ± 0.61	2.19 ± 0.47		
WGRLTSYSGGGYYLDLPGSRQGSA [PKD2L1]	2.63 ± 0.18	2.69 ± 0.18		
WIGYEHTSFCGQQFILERGEYPRW [CRYBA1]	2.69 ± 0.41	2.21 ± 0.15		
WIHCFEGVTAIIFCVALSDYDLVL [GNAI1]	3.2 ± 0.53	3.22 ± 0.24		
WNFDFVTETPLEGDFAWERVRGLG [CDKN1A]	2.54 ± 0.42	2.8 ± 0.39		
WNVAAPLYLKQSDLASAAAKQIME [INTS4]	2.67 ± 0.13	2.81 ± 0.05		
WPSAKSAGWTLATLGEQGLPHQSH [SCNN1D]	3.36 ± 0.43	3.17 ± 0.4		
WQVLKTHPGDPRFQCSLWHLYPL [POLD4]			2.42 ± 0.62	2.14 ± 0.33
WRKRFTEQPITDFCSVIRINSTAP [ZNF277]	2.48 ± 0.55	2.23 ± 0.087		
WTLEDEIHSPAHPEIEKADDHLQQ [ZNF649]	5.2 ± 0.34	5.26 ± 0.3		

Sequence	protein stability index [1]	protein stability index [2]	protein stability index [3]	protein stability index [4]
WVHKHFTEDIQTRQYRSIEVLIGA [SRPK2]	2.37 ± 0.18	2.27 ± 0.41		
YAADRNCMWSKKCSGVACLVKDNP [WASL]	3.08 ± 0.95	2.49 ± 0.3		
YCHPDSETDEDEEEGDEQQRLLNT [GMCL1]	5.33 ± 0.37	5.2 ± 0.36		
YEETGFYEIEIQAEDGGAYLATAK [PCDHGA10]	3.57 ± 0.14	3.72 ± 0.29		
YEIRVKTNLPIFKLKESTVRRRYS [SNX3]	2.44 ± 0.4	2.27 ± 0.22		
YGPQVNNISHTKEKKKGKAKKKRL [WASL]	4.48 ± 0.34	4.68 ± 0.29		
YGQFTCEGCKSFFKRSVRRNLSYT [NR2F2]	2.33 ± 0.12	2.33 ± 0.21		
YGYAAQARARERERLAHSRAAAAA [KCNA4]	3.9 ± 0.26	4.02 ± 0.097		
YHLEKQTALLGGPRRCHSAPPQGS [PLEKHN1]	3.28 ± 0.036	3.14 ± 0.53		
YIGTHEYPHFSHRPSTLQAASTPQ [OAS1]	2.61 ± 0.56	3.16 ± 0.48		
YKCAECGKSFCHSTHLTVHRRIHT [ZNF8]	3.9 ± 0.18	4.42 ± 0.16		
YLLQFARKPVEAESVEGVVRILLE [INTS4]	2.19 ± 0.24	2.27 ± 0.25		
YLMKTKQFRLKEAFDYIKQRRSMV [DUSP5]	2.19 ± 0.38	2.11 ± 0.33		
YLSPLERKRLAREMQLSEVQIKTW [VENTX]	2.5 ± 0.2	2.7 ± 0.24		
YMAICKPLHELITMNRRVCVLMLL [OR4A15]	2.79 ± 0.49	2.35 ± 0.32		
YMDTKLLVARFLEQSSCTMTPDIH [FAM189A2]	2.15 ± 0.45	2.18 ± 0.084		
YNWEEERATNHLDQVPSMQDGSES [SPAG8]	5.33 ± 0.23	5.44 ± 0.15		
YPPLEGHVRQGVFSSLNHIVEKRV [INTS3]	3.17 ± 0.3	3.38 ± 0.38		
YRFDSSSCSSEDNLSLVCLPRSED [DRICH1]	4.46 ± 0.16	4.51 ± 0.15		
YRQPIPVQELVLEDLQDGDVRMGG [NET1]	4.4 ± 0.29	4.56 ± 0.34		
YRTWNVVVHDWLYSYVYQDGLRLL [SOAT2]	3.02 ± 0.41	2.82 ± 0.84		
YSPRRSRGSPRYSPRHSRSRSRT [SRSF1]			4.18 ± 0.35	4.49 ± 0.26
YTFLYLVCISTKTQCSEEDQCKIN [FEM1B]	2.65 ± 0.51	2.33 ± 0.2		
YTGPSSSGRFAGREWYYGNVTRHQ [NCK2]	2.35 ± 0.31	2.65 ± 0.58		
YVKVLHHMVKISGGPHISYPPLHE [MAGEA3]	2.33 ± 0.61	2.58 ± 0.31		
YVPNMLGIIPYAGIDLAVYETLKN [SLC25A25]	2.87 ± 0.19	2.61 ± 0.5		
